The results in this text go back to patent US11827699 (dated 2023).

Holding throughout (assay): SPR
For orientation: SPR reads the build-up and loss of mass on a sensor chip optically.

For one assay, the target named is T1, human FcγRIIb (human, UniProt P31994).
T1 chain: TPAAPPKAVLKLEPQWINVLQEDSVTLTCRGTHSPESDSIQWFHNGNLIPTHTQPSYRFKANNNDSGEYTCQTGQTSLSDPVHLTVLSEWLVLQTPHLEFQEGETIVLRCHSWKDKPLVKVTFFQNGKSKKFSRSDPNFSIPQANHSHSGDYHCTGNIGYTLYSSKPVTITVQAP

For another assay, the target named is T2, human FcγRIIa H131 (human, UniProt P12318).
T2 chain: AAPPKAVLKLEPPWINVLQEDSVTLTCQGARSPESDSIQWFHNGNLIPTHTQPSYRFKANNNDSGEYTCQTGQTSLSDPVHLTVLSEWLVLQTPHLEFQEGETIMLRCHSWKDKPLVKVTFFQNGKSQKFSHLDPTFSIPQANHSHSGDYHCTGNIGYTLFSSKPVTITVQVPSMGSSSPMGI

The next assay has as its target T3, human FcγRIa (human, UniProt P12314).
T3 chain: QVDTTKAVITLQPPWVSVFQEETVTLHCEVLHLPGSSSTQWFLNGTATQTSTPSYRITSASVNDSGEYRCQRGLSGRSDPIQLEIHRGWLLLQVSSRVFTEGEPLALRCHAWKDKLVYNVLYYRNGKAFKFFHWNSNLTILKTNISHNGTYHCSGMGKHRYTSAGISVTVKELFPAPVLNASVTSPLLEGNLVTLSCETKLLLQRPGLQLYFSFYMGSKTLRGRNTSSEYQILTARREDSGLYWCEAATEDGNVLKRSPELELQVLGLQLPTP

A further assay has as its target human FcγRIIIa V158 (human, UniProt P08637).

Sequence of human FcγRIIIa V158 (P08637 17-208 F176V): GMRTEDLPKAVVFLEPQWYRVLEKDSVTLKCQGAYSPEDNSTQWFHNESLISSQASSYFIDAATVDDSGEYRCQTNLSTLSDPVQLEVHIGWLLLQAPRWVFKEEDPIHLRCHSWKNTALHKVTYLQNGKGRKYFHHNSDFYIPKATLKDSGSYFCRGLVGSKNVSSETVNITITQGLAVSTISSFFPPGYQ

B1: IL6R-BP493 (antibody)
chain 1: QVQLQESGPGLVKPSETLSLTCAVSGHSISHDHAWSWVRQPPGEGLEWIGFISYSGITNYNPSLQGRVTISRDNSKNTLYLQMNSLRAEDTAVYYCARSLARTTAMDYWGEGTLVTVSSASTKGPSVFPLAPSSKSTSGGTAALGCLVKDYFPEPVTVSWNSGALTSGVHTFPAVLQSSGLYSLSSVVTVPSSSLGTQTYICNVNHKPSNTKVDKKVEPKSCDKTHTCPPCPAPELLGGDSVFLFPPKPKDTLMISRTPEVTCVVIDVAEEDGEVKFNWYVDGVEVHNAKTKPREEQDNSTYRVVSVLTVLHQDWLNGKEYKCKVSNKALPAPIEKTISKAKGQPREPQVYTLPPSRDELTKNQVSLTCLVKGFYPSDIAVEWESNGQPENNYKTTPPVLDSDGSFFLYSKLTVDKSRWQQGNVFSCSVMHEALHNHYTQESLSLSP
chain 2: not shown
In general, Kd refers to the constant that tells how readily two partners part at equilibrium. As to B1, the dissociation constant Kd with human FcγRIIb worked out at 21 nM; with human FcγRIIa H131, 19 µM; with human FcγRIa it was 0.82 nM; with human FcγRIIIa V158 it was 35 µM.

B2: IL6R-BP426 (antibody)
chain 1: QVQLQESGPGLVKPSETLSLTCAVSGHSISHDHAWSWVRQPPGEGLEWIGFISYSGITNYNPSLQGRVTISRDNSKNTLYLQMNSLRAEDTAVYYCARSLARTTAMDYWGEGTLVTVSSASTKGPSVFPLAPSSKSTSGGTAALGCLVKDYFPEPVTVSWNSGALTSGVHTFPAVLQSSGLYSLSSVVTVPSSSLGTQTYICNVNHKPSNTKVDKKVEPKSCDKTHTCPPCPAPDLLGDDSVFLFPPKPKDTLMISRTPEVTCVVVDVAEDDGEVKFNWYVDGVEVHNAKTKPREEQYNSTYRVVSVLTVLHQDWLNGKEYKCKVSNKALPRPIEKTISKAKGQPREPQVYTLPPSRDELTKNQVSLTCLVKGFYPSDIAVEWESNGQPENNYKTTPPVLDSDGSFFLYSKLTVDKSRWQQGNVFSCSVMHEALHNHYTQESLSLSP
chain 2: not shown
On to B2, for which the Kd with human FcγRIIa H131 was 19 µM; in the assay with human FcγRIa it was 1 nM.

B3: IL6R-BP423 (antibody)
chain 1: QVQLQESGPGLVKPSETLSLTCAVSGHSISHDHAWSWVRQPPGEGLEWIGFISYSGITNYNPSLQGRVTISRDNSKNTLYLQMNSLRAEDTAVYYCARSLARTTAMDYWGEGTLVTVSSASTKGPSVFPLAPSSKSTSGGTAALGCLVKDYFPEPVTVSWNSGALTSGVHTFPAVLQSSGLYSLSSVVTVPSSSLGTQTYICNVNHKPSNTKVDKKVEPKSCDKTHTCPPCPAPDLLGDDSVFLFPPKPKDTLMISRTPEVTCVVVDVAEEDGEVKFNWYVDGVEVHNAKTKPREEQYNSTYRVVSVLTVLHQDWLNGKEYKCKVSNKALPRPIEKTISKAKGQPREPQVYTLPPSRDELTKNQVSLTCLVKGFYPSDIAVEWESNGQPENNYKTTPPVLDSDGSFFLYSKLTVDKSRWQQGNVFSCSVMHEALHNHYTQESLSLSP
chain 2: not shown
For B3, in the assay with human FcγRIIa H131, the dissociation constant (Kd) worked out at 2 µM.

B4: IL6R-BP501 (antibody)
chain 1: QVQLQESGPGLVKPSETLSLTCAVSGHSISHDHAWSWVRQPPGEGLEWIGFISYSGITNYNPSLQGRVTISRDNSKNTLYLQMNSLRAEDTAVYYCARSLARTTAMDYWGEGTLVTVSSASTKGPSVFPLAPSSKSTSGGTAALGCLVKDYFPEPVTVSWNSGALTSGVHTFPAVLQSSGLYSLSSVVTVPSSSLGTQTYICNVNHKPSNTKVDKKVEPKSCDKTHTCPPCPAPELLGDDSVFLFPPKPKDTLMISRTPEVTCVVIDVAEEDGEVKFNWYVDGVEVHNAKTKPREEQYNSTYRVVSVLTVLHQDWLNGKEYKCKVSNKALPAPIEKTISKAKGQPREPQVYTLPPSRDELTKNQVSLTCLVKGFYPSDIAVEWESNGQPENNYKTTPPVLDSDGSFFLYSKLTVDKSRWQQGNVFSCSVMHEALHNHYTQESLSLSP
chain 2: not shown
Consider B4, for which the Kd in the assay with human FcγRIIb was found to be 25 nM; with human FcγRIIa H131, 14 µM; with human FcγRIa, 2.1 nM; with human FcγRIIIa V158, 19 µM.

B5: IL6R-BP510 (antibody)
chain 1: QVQLQESGPGLVKPSETLSLTCAVSGHSISHDHAWSWVRQPPGEGLEWIGFISYSGITNYNPSLQGRVTISRDNSKNTLYLQMNSLRAEDTAVYYCARSLARTTAMDYWGEGTLVTVSSASTKGPSVFPLAPSSKSTSGGTAALGCLVKDYFPEPVTVSWNSGALTSGVHTFPAVLQSSGLYSLSSVVTVPSSSLGTQTYICNVNHKPSNTKVDKKVEPKSCDKTHTCPPCPAPELLGDDSVFLFPPKPKDTLMISRTPEVTCVVIDVAEEDGPVKFNWYVDGVEVHNAKTKPREEQYNSTYRVVSVLTVLHQDWLNGKEYKCKVSNKALPRPIEKTISKAKGQPREPQVYTLPPSRDELTKNQVSLTCLVKGFYPSDIAVEWESNGQPENNYKTTPPVLDSDGSFFLYSKLTVDKSRWQQGNVFSCSVMHEALHNHYTQESLSLSP
chain 2: not shown
In the case of B5, the dissociation constant Kd came out at 3.8 nM with human FcγRIIb, 4 µM in the assay with human FcγRIIa H131, 6 nM with human FcγRIa and 25 µM with human FcγRIIIa V158.

B6: IL6R-BP266 (antibody)
chain 1: QVQLQESGPGLVKPSETLSLTCAVSGHSISHDHAWSWVRQPPGEGLEWIGFISYSGITNYNPSLQGRVTISRDNSKNTLYLQMNSLRAEDTAVYYCARSLARTTAMDYWGEGTLVTVSSASTKGPSVFPLAPSSKSTSGGTAALGCLVKDYFPEPVTVSWNSGALTSGVHTFPAVLQSSGLYSLSSVVTVPSSSLGTQTYICNVNHKPSNTKVDKKVEPKSCDKTHTCPPCPAPDLLGDDSVFLFPPKPKDTLMISRTPEVTCVVVDVSEEDGEVKFNWYVDGVEVHNAKTKPREEQYNSTYRVVSVLTVLHQDWLNGKEYKCKVSNKALPRPIEKTISKAKGQPREPQVYTLPPSRDELTKNQVSLTCLVKGFYPSDIAVEWESNGQPENNYKTTPPVLDSDGSFFLYSKLTVDKSRWQQGNVFSCSVMHEALHNHYTQESLSLSP
chain 2: not shown
B6: the Kd amounted to 13 µM in the assay with human FcγRIIa H131 and 40 µM with human FcγRIIIa V158.

B7: IL6R-BP495 (antibody)
chain 1: QVQLQESGPGLVKPSETLSLTCAVSGHSISHDHAWSWVRQPPGEGLEWIGFISYSGITNYNPSLQGRVTISRDNSKNTLYLQMNSLRAEDTAVYYCARSLARTTAMDYWGEGTLVTVSSASTKGPSVFPLAPSSKSTSGGTAALGCLVKDYFPEPVTVSWNSGALTSGVHTFPAVLQSSGLYSLSSVVTVPSSSLGTQTYICNVNHKPSNTKVDKKVEPKSCDKTHTCPPCPAPELLGDDSVFLFPPKPKDTLMISRTPEVTCVVVDVGEEDGEVKFNWYVDGVEVHNAKTKPREEQDNSTYRVVSVLTVLHQDWLNGKEYKCKVSNKALPRPIEKTISKAKGQPREPQVYTLPPSRDELTKNQVSLTCLVKGFYPSDIAVEWESNGQPENNYKTTPPVLDSDGSFFLYSKLTVDKSRWQQGNVFSCSVMHEALHNHYTQESLSLSP
chain 2: not shown
In the case of B7, the Kd in the assay with human FcγRIIb is 9.7 nM; in the assay with human FcγRIIa H131, 12 µM; with human FcγRIa, 8.3 nM; with human FcγRIIIa V158, 33 µM.

B8: IL6R-BP430 (antibody)
chain 1: QVQLQESGPGLVKPSETLSLTCAVSGHSISHDHAWSWVRQPPGEGLEWIGFISYSGITNYNPSLQGRVTISRDNSKNTLYLQMNSLRAEDTAVYYCARSLARTTAMDYWGEGTLVTVSSASTKGPSVFPLAPSSKSTSGGTAALGCLVKDYFPEPVTVSWNSGALTSGVHTFPAVLQSSGLYSLSSVVTVPSSSLGTQTYICNVNHKPSNTKVDKKVEPKSCDKTHTCPPCPAPDLLGDDSVFLFPPKPKDTLMISRTPEVTCVVVDLGEEDGEVKFNWYVDGVEVHNAKTKPREEQYNSTYRVVSVLTVLHQDWLNGKEYKCKVSNKALPRPIEKTISKAKGQPREPQVYTLPPSRDELTKNQVSLTCLVKGFYPSDIAVEWESNGQPENNYKTTPPVLDSDGSFFLYSKLTVDKSRWQQGNVFSCSVMHEALHNHYTQESLSLSP
chain 2: not shown
Molecule B8 yielded a Kd with human FcγRIIa H131 of 38 µM.

B9: IL6R-BP435 (antibody)
chain 1: QVQLQESGPGLVKPSETLSLTCAVSGHSISHDHAWSWVRQPPGEGLEWIGFISYSGITNYNPSLQGRVTISRDNSKNTLYLQMNSLRAEDTAVYYCARSLARTTAMDYWGEGTLVTVSSASTKGPSVFPLAPSSKSTSGGTAALGCLVKDYFPEPVTVSWNSGALTSGVHTFPAVLQSSGLYSLSSVVTVPSSSLGTQTYICNVNHKPSNTKVDKKVEPKSCDKTHTCPPCPAPDLLGDDSVFLFPPKPKDTLMISRTPEVTCVVVDVSDEDGEVKFNWYVDGVEVHNAKTKPREEQDNSTYRVVSVLTVLHQDWLNGKEYKCKVSNAALPRPTEKTISKAKGQPREPQVYTLPPSRDELTKNQVSLTCLVKGFYPSDIAVEWESNGQPENNYKTTPPVLDSDGSFFLYSKLTVDKSRWQQGNVFSCSVMHEALHNHYTQESLSLSP
chain 2: not shown
Molecule B9 showed an equilibrium dissociation constant (Kd) with human FcγRIa of 1 nM.

B10: IL6R-BP436 (antibody)
chain 1: QVQLQESGPGLVKPSETLSLTCAVSGHSISHDHAWSWVRQPPGEGLEWIGFISYSGITNYNPSLQGRVTISRDNSKNTLYLQMNSLRAEDTAVYYCARSLARTTAMDYWGEGTLVTVSSASTKGPSVFPLAPSSKSTSGGTAALGCLVKDYFPEPVTVSWNSGALTSGVHTFPAVLQSSGLYSLSSVVTVPSSSLGTQTYICNVNHKPSNTKVDKKVEPKSCDKTHTCPPCPAPDLLGDDSVFLFPPKPKDTLMISRTPEVTCVVVDVAEEDGEVKFNWYVDGVEVHNAKTKPREEQDNSTYRVVSVLTVLHQDWLNGKEYKCKVSNKALPRPTEKTISKAKGQPREPQVYTLPPSRDELTKNQVSLTCLVKGFYPSDIAVEWESNGQPENNYKTTPPVLDSDGSFFLYSKLTVDKSRWQQGNVFSCSVMHEALHNHYTQESLSLSP
chain 2: not shown
B10 showed a Kd with human FcγRIIIa V158 of 23 µM.
